PMC8976148 (2022)

Biological target: T1, Biotinylated N-Avitagged-TEAD4^217-434 (UniProt Q15561 217-434, biotin (biotinylated Avitag))
T1 chain: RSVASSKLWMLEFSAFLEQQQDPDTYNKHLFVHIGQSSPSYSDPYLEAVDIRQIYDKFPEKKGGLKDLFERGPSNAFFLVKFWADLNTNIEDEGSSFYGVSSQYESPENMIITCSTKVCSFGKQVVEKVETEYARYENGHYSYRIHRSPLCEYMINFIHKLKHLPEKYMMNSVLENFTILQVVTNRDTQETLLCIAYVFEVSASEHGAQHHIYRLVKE
Experiment: FRET

B1: YAP^50-171 (domain or fragment)
chain: AGHQIVHVRGDSETDLEALFNAVMNPKTANVPQTVPMRLRKLPDSFFKPPEPKSHSRQASTDAGTAGALTPQHVRAHSSPASLQLGAVSPGTLTPTGVVSGPAATPTAQHLRQSSFEIPDDV
- IC50: 11 nM

B2: YAP^50-171 with a cysteine inserted at position 172 (domain or fragment)
chain: AGHQIVHVRGDSETDLEALFNAVMNPKTANVPQTVPMRLRKLPDSFFKPPEPKSHSRQASTDAGTAGALTPQHVRAHSSPASLQLGAVSPGTLTPTGVVSGPAATPTAQHLRQSSFEIPDDVC
- IC50: 7 nM
